Source: US20260216242A1, “ALPP-SPECIFIC VARIANT ANTIGEN BINDING MOLECULES” (ALMAC DISCOVERY LIMITED, priority 2022, published 2026)

B1: D10 E06-hFc (S239/442C T366Y/Y407T) [G4S]3 conjugated to MC-vc-PAB-MMAE (Fc fusion, DAR 4.0)
chain 1: QVQLVESGGGLVQPGGSLRLSCAASGSIFSVNTMGWYRQAPGKQRDLVAVATSGGTIHYADSVKGRFTISRDNAKNTVYLQMNSLKPEDTAVYYCNLVVPYGMIAGDHDYWGQGTKVTVSSGGGGSGGGGSGGGGSEPKSSDKTHTCPPCPAPELLGGPCVFLFPPKPKDTLMISRTPEVTCVVVDVSHEDPEVKFNWYVDGVEVHNAKTKPREEQYNSTYRVVSVLTVLHQDWLNGKEYKCKVSNKALPAPIEKTISKAKGQPREPQVYTLPPSRDELTKNQVSLYCLVKGFYPSDIAVEWESNGQPENNYKTTPPVLDSDGSFFLYSKLTVDKSRWQQGNVFSCSVMHEALHNHYTQKSLCLSPGK
chain 2: QVHLVESGGGLVQAGGSLRLSCAASRRSFSEYAMGWFRQAPGKEREFVAAIGWSGVIEYADSVKGRFTISRDNAKDTVYLQMNSLKPEDTAVYYCAAGLGIRVVSQTPAYWGQGTQVTVSSGGGGSGGGGSGGGGSEPKSSDKTHTCPPCPAPELLGGPCVFLFPPKPKDTLMISRTPEVTCVVVDVSHEDPEVKFNWYVDGVEVHNAKTKPREEQYNSTYRVVSVLTVLHQDWLNGKEYKCKVSNKALPAPIEKTISKAKGQPREPQVYTLPPSRDELTKNQVSLTCLVKGFYPSDIAVEWESNGQPENNYKTTPPVLDSDGSFFLTSKLTVDKSRWQQGNVFSCSVMHEALHNHYTQKSLCLSPGK
modifications: here or on the partner: MC-vc-PAB-MMAE on Cys 239 and Cys 442 (S239C, S442C, EU numbering)
B2: D10 F05-hFc (S239/442C T366Y/Y407T) [G4S]3 conjugated to MC-vc-PAB-MMAE (Fc fusion, DAR 3.9)
chain 1: QVQLVESGGGLVQPGGSLRLSCAASGSIFSVNTMGWYRQAPGKQRDLVAVATSGGTIHYADSVKGRFTISRDNAKNTVYLQMNSLKPEDTAVYYCNLVVPYGMIAGDHDYWGQGTKVTVSSGGGGSGGGGSGGGGSEPKSSDKTHTCPPCPAPELLGGPCVFLFPPKPKDTLMISRTPEVTCVVVDVSHEDPEVKFNWYVDGVEVHNAKTKPREEQYNSTYRVVSVLTVLHQDWLNGKEYKCKVSNKALPAPIEKTISKAKGQPREPQVYTLPPSRDELTKNQVSLYCLVKGFYPSDIAVEWESNGQPENNYKTTPPVLDSDGSFFLYSKLTVDKSRWQQGNVFSCSVMHEALHNHYTQKSLCLSPGK
chain 2: QVQLVESGGGLVQAGGSLRLSCAASGRAFGDYNIGWFRQAPGKEREFVARRTWDGSSTRYDDSVKGRFTVSIDNAKNTAYLQMNSLKTEDTAVYYCAAGRYSRVRGWEYDYWGQGTQVTVSSGGGGSGGGGSGGGGSEPKSSDKTHTCPPCPAPELLGGPCVFLFPPKPKDTLMISRTPEVTCVVVDVSHEDPEVKFNWYVDGVEVHNAKTKPREEQYNSTYRVVSVLTVLHQDWLNGKEYKCKVSNKALPAPIEKTISKAKGQPREPQVYTLPPSRDELTKNQVSLTCLVKGFYPSDIAVEWESNGQPENNYKTTPPVLDSDGSFFLTSKLTVDKSRWQQGNVFSCSVMHEALHNHYTQKSLCLSPGK
modifications: here or on the partner: MC-vc-PAB-MMAE on Cys 239 and Cys 442 (S239C, S442C, EU numbering)
B3: D10 F05-hFc (S239/442C T366Y/Y407T) [G4S]1 conjugated to MC-vc-PAB-MMAE (Fc fusion, DAR 4.0)
chain 1: QVQLVESGGGLVQPGGSLRLSCAASGSIFSVNTMGWYRQAPGKQRDLVAVATSGGTIHYADSVKGRFTISRDNAKNTVYLQMNSLKPEDTAVYYCNLVVPYGMIAGDHDYWGQGTKVTVSSGGGGSEPKSSDKTHTCPPCPAPELLGGPCVFLFPPKPKDTLMISRTPEVTCVVVDVSHEDPEVKFNWYVDGVEVHNAKTKPREEQYNSTYRVVSVLTVLHQDWLNGKEYKCKVSNKALPAPIEKTISKAKGQPREPQVYTLPPSRDELTKNQVSLYCLVKGFYPSDIAVEWESNGQPENNYKTTPPVLDSDGSFFLYSKLTVDKSRWQQGNVFSCSVMHEALHNHYTQKSLCLSPGK
chain 2: QVQLVESGGGLVQAGGSLRLSCAASGRAFGDYNIGWFRQAPGKEREFVARRTWDGSSTRYDDSVKGRFTVSIDNAKNTAYLQMNSLKTEDTAVYYCAAGRYSRVRGWEYDYWGQGTQVTVSSGGGGSEPKSSDKTHTCPPCPAPELLGGPCVFLFPPKPKDTLMISRTPEVTCVVVDVSHEDPEVKFNWYVDGVEVHNAKTKPREEQYNSTYRVVSVLTVLHQDWLNGKEYKCKVSNKALPAPIEKTISKAKGQPREPQVYTLPPSRDELTKNQVSLTCLVKGFYPSDIAVEWESNGQPENNYKTTPPVLDSDGSFFLTSKLTVDKSRWQQGNVFSCSVMHEALHNHYTQKSLCLSPGK
modifications: here or on the partner: MC-vc-PAB-MMAE on Cys 239 and Cys 442 (S239C, S442C, EU numbering)
B4: A06 F05-hFc (S239/442C T366Y/Y407T) [G4S]3 conjugated to MC-vc-PAB-MMAE (Fc fusion, DAR 4.0)
chain 1: QVHLVESGGGLVQAGGSLRLSCAASGRTFLSMGWFRQAPGKEREFVAAISWTGGSTGYADSVKGRFTISRESDKETMYLQMNSLKPEDTAVYYCAARGDVYYGGDDATRYKYWGQGTQVTVSSGGGGSGGGGSGGGGSEPKSSDKTHTCPPCPAPELLGGPCVFLFPPKPKDTLMISRTPEVTCVVVDVSHEDPEVKFNWYVDGVEVHNAKTKPREEQYNSTYRVVSVLTVLHQDWLNGKEYKCKVSNKALPAPIEKTISKAKGQPREPQVYTLPPSRDELTKNQVSLYCLVKGFYPSDIAVEWESNGQPENNYKTTPPVLDSDGSFFLYSKLTVDKSRWQQGNVFSCSVMHEALHNHYTQKSLCLSPGK
chain 2: QVQLVESGGGLVQAGGSLRLSCAASGRAFGDYNIGWFRQAPGKEREFVARRTWDGSSTRYDDSVKGRFTVSIDNAKNTAYLQMNSLKTEDTAVYYCAAGRYSRVRGWEYDYWGQGTQVTVSSGGGGSGGGGSGGGGSEPKSSDKTHTCPPCPAPELLGGPCVFLFPPKPKDTLMISRTPEVTCVVVDVSHEDPEVKFNWYVDGVEVHNAKTKPREEQYNSTYRVVSVLTVLHQDWLNGKEYKCKVSNKALPAPIEKTISKAKGQPREPQVYTLPPSRDELTKNQVSLTCLVKGFYPSDIAVEWESNGQPENNYKTTPPVLDSDGSFFLTSKLTVDKSRWQQGNVFSCSVMHEALHNHYTQKSLCLSPGK
modifications: here or on the partner: MC-vc-PAB-MMAE on Cys 239 and Cys 442 (S239C, S442C, EU numbering)

Molecular target: ALPP/ALPPL2 on ALPP/ALPPL2 positive cancer cells
Experiment: cell-based or functional assay

Binder | % viability remaining, MDA-MB-468 cells | % viability remaining, MKN-1 cells | % viability remaining, NCI-H1651 cells | % viability remaining, NCI-N87 cells | IC50 at 96 h (nM), cell-killing of MDA-MB-468 cells (Cell Titre Glo) | IC50 at 96 h (nM), cell-killing of MKN-1 cells (Cell Titre Glo) | IC50 at 96 h (nM), cell-killing of NCI-H1651 cells (Cell Titre Glo) | IC50 at 96 h (nM), cell-killing of NCI-N87 cells (Cell Titre Glo)
B1 | 16% | 12% | 21% | 34% | 1.55 nM | 0.1 nM | 0.53 nM | 3.6 nM
B2 | 17% | 13% | 22% | 37% | 0.96 nM | 0.12 nM | 0.74 nM | 1.8 nM
B3 | 17% | 16% | 22% | 35% | 2.36 nM | 0.14 nM | 0.85 nM | 2 nM
B4 | 17% | 16% | 22% | 36% | 12 nM | 0.26 nM | 0.47 nM | 7.9 nM
